# According to patent publication US20180127505A1, “HUMANIZED ANTI-AXL ANTIBODIES AND THEIR CONJUGATES” (MEDIMMUNE LIMITED, priority 2015, published 2018):
# Experiment: Capillary isoelectric focussing (pI)
# Type: physicochemical
# Details: HEK293F expression product
# Protocol: Protocol 5: Capillary Isoelectric Focussing
# • PA 800 plus (AB SCIEX) • Anolyte Solution: 200 mM Phosphoric Acid (Sigma-Aldrich #345 245). • 4.3M Urea (Sigma-Aldrich #U0631) in water. • Catholyte Solution: 300 mM Sodium Hydroxide. • 3M Urea (Sigma-Aldrich #U0631) in cIEF Gel (Beckman Coulter #477497). • Chemical Mobiliser: 350 mM Acetic Acid (Sigma-Aldrich #537 020). • Pharmalyte 3-10 (GE Healthcare 17-0456-01). • Cathodic Stabiliser: 500 mM Arginine (Sigma-Aldrich #A5006). • cIEF Peptide markers PI 4-10 (Beckman Coulter # A58481). • Anodic Stabiliser: 200 mM Iminodiacetic Acid (Sigma-Aldrich #220 000). • Neutral Capillary, 50 μm i.d.×45 cm, (Beckman Coulter #477 441)
# • Turn on the PA800+ machine and UV lamp, allowing it to warm up 30 mins before use. • Clean the system electrodes and interface block with a damp Kimwipe. • Prepare buffer trays as shown, with 1.5 mL reagent per vial, 1 mL of water in the waste and place in the system. • 1. DDI water • 2. Anolyte • 3. Urea Solution • 4. 3M urea/cIEF Gel • 5. Chemical Mobilizer • 6. Waste • 7. Catholyte • 8. Chemical Mobilizer • 9. BI (Inlet Buffer Tray) • 10. BO (Outlet Buffer Tray) • NOTE. Each set of buffer vials is good for 6 consecutive runs or for 24 hours inside the instrument. • Insert the capillary cartridge into the system and close the front panel. • NOTE. […] When the capillary is not in use, submerge the capillary ends in vials filled with DDI water. • Prepare cIEF master mix using the table below. Dispense each reagent into a centrifuge tube, vortex 1 min, invert every 15-20 sec to ensure complete mixing and store at 2° C. to 8° C. for up to 1 day.
# • Desalt and concentrate each antibody (to about 5 mg/ml) in 2M urea using Amicon Ultra 0.5 mL centrifugal filters (Sigma Z677108). • Mix 200 μL of master mix with 10 μL of protein, vortex the cIEF sample for 1 min, inverting the tube every 15-20 sec, then centrifuge at high speed to remove any air bubbles. Transfer 100 μL of sample into a micro vial. Place the micro vial into a universal plastic vial and cap it with a blue cap. Then place the sample vial in the inlet sample tray. • Run the “cIEF Conditioning—PA 800 plus.met” method to condition the column. • Rinse for 5 min at 50 psi with Chemical Mobilizer. See FIG. 2.10. • 2 Rinse for 2 min at 50 psi with DDI water. • 3 Rinse for 5 min at 50 psi with cIEF gel. • 4 Submerge both of the capillary ends in vials filled with DDI water. • Use the “cIEF Separation—PA 800 plus.met” method to create a sequence containing all protein samples and a blank. • Rinse for 3 min at 50 psi with Urea Solution. See FIG. 2.11. • Rinse for 2 min at 50 psi with DDI water. • Inject sample for 99.0 sec at 25 psi. • Water dip by submerging both capillary ends in DDI water. • Focusing step, 15 min at 25 kV under normal polarity (Time=0). • Chemical mobilization, 30 min at 30 kV under normal polarity (Time=15 min). • Stop data collection (Time=45 min). • Rinse for 2 min at 50 psi with DDI water (Time=45.10 min). • Submerged both of the capillary ends in DDI water (Time=47.20 min). • End the method (Time=47.30 min). • Put the “cIEF Shutdown—PA 800 plus.met” method at the end of the sequence to rinse the capillary and turn off the UV. • Rinse for 2 min at 50 psi with DDI water. See FIG. 2.12. • Rinse for 5 min at 50 psi with cIEF gel. • Turn off the UV lamp. • Submerge both of the capillary ends in vials filled with DDI water. • For short term storage (1 to 3 days), leave the capillary on the instrument. […]
molecule,measurement,value
"Ab1 (antibody, V domains shown) VH: EVQLVESGGDLVKPGGSLKLSCAASGFTFSSYGMSWVRQTPDKRLEWVATISSGGSYTYYPDSVKGRFTISRDNAKNTLYLQMSSLKSEDTAMYYCARHPIYYTYDDTMDYWGQGTSVTVSS VL: ENVLTQSPAIMAASPGEKVTMTCSASSSVSSGNFHWYQQKPGTSPKLWIYRTSNLASGVPARFSGSGSGTSYSLTISSMEAEDAATYYCQQWSGYPWTFGGGTKLEIK",pI,8.05
"Ab2: anti-AXL antibody, VH SEQ ID NO. 2, VL SEQ ID NO. 5, constant region derived from human antibodies (antibody, V domains shown, human constant regions; Synthetic heavy chain variable region 1H12RHA; Synthetic light chain variable region 1H12RKA, 5, constant region derived from human antibodies) VH: MGFKMESQFQVFVFVFLWLSGVDGQVQLVESGGGVVQPGRSLRLSCAASGFTFSSYGMSVRQAPGKGLEWVATISSGGSYTYYPDSVKGRFTISRDNSKNTLYLQMNSLRAEDTAVYYCARHPIYYTYDDTMDYWGQGTTVTVSS VL: MGFKMESQFQVFVFVFLWLSGVDGEIVLTQSPATLSLSPGERATLSCSASSSVSSGNFHWYQQKPGLAPRLLIYRTSNLASGIPDRFSGSGSGTDFTLTISRLEPEDFAVYYCQQWSGYPWTFGPGTKVDIK",pI,8.06
"Ab4: anti-AXL antibody, VH SEQ ID NO. 3, VL SEQ ID NO. 5, constant region derived from human antibodies (antibody, V domains shown, human constant regions; Synthetic heavy chain variable region 1H12RHB; Synthetic light chain variable region 1H12RKA, 5, constant region derived from human antibodies) VH: MGFKMESQFQVFVFVFLWLSGVDGEVQLVESGGGLVQPGGSLRLSCAASGFTFSSYGMSWVRQAPGKGLEWVATISSGGSYTYYPDSVKGRFTISRDNAKNSLYLQMNSLRAEDTAVYYCARHPIYYTYDDTMDYWGQGTLVTVSS VL: MGFKMESQFQVFVFVFLWLSGVDGEIVLTQSPATLSLSPGERATLSCSASSSVSSGNFHWYQQKPGLAPRLLIYRTSNLASGIPDRFSGSGSGTDFTLTISRLEPEDFAVYYCQQWSGYPWTFGPGTKVDIK",pI,7.56
"Ab5: anti-AXL antibody, VH SEQ ID NO. 3, VL SEQ ID NO. 7, constant region derived from human antibodies (antibody, V domains shown, human constant regions; Synthetic heavy chain variable region 1H12RHB; Synthetic light chain variable region 1H12RKB, 7, constant region derived from human antibodies) VH: MGFKMESQFQVFVFVFLWLSGVDGEVQLVESGGGLVQPGGSLRLSCAASGFTFSSYGMSWVRQAPGKGLEWVATISSGGSYTYYPDSVKGRFTISRDNAKNSLYLQMNSLRAEDTAVYYCARHPIYYTYDDTMDYWGQGTLVTVSS VL: MGFKMESQFQVFVFVFLWLSGVDGEIVLTQSPGTLSLSPGERATLSCSASSSVSSGNFHWYQQKPGLAPRLLIYRTSNLASGIPARFSGSGSGTDFTLTISSLEPEDFAVYYCQQWSGYPWTFGGGTKLEIK",pI,7.54
"Ab3: anti-AXL antibody, VH SEQ ID NO. 2, VL SEQ ID NO. 7, constant region derived from human antibodies (antibody, V domains shown, human constant regions; Synthetic heavy chain variable region 1H12RHA; Synthetic light chain variable region 1H12RKB, 7, constant region derived from human antibodies) VH: MGFKMESQFQVFVFVFLWLSGVDGQVQLVESGGGVVQPGRSLRLSCAASGFTFSSYGMSVRQAPGKGLEWVATISSGGSYTYYPDSVKGRFTISRDNSKNTLYLQMNSLRAEDTAVYYCARHPIYYTYDDTMDYWGQGTTVTVSS VL: MGFKMESQFQVFVFVFLWLSGVDGEIVLTQSPGTLSLSPGERATLSCSASSSVSSGNFHWYQQKPGLAPRLLIYRTSNLASGIPARFSGSGSGTDFTLTISSLEPEDFAVYYCQQWSGYPWTFGGGTKLEIK",pI,8.15
